In this test the target is Kv1.3 of rat L6 skeletal muscle cells (rat) (UniProt P15384). Briefly: cell-based or functional assay.
Chain of Kv1.3 of rat L6 skeletal muscle cells (rat) (P15384 whole entry): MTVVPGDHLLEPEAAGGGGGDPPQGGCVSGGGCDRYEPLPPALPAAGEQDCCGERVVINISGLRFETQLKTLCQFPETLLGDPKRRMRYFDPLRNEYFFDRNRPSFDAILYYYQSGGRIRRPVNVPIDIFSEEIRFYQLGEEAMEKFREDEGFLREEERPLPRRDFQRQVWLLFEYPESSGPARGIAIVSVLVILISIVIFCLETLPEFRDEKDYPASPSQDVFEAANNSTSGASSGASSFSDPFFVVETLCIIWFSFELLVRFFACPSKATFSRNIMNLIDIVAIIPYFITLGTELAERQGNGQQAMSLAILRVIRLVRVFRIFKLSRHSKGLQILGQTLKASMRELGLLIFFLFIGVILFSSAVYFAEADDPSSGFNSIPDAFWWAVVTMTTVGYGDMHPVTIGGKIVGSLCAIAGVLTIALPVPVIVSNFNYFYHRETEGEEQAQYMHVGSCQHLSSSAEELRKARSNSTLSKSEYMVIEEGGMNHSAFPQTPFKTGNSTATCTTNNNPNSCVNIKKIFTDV

“margatoxin (from UniProt P40755 1-39) (peptide)” returned a concentration necessary for 1/2 maximal increase in glucose uptake (L6 cells) of 53 nM.

The values above are taken from US20030032595A1.
